Measurements: US6803203B1, “DNA-PK assay” (Brookhaven Science Associates, priority 1993, dated 2004)
pIC50: −log10 of the molar value. “Also recorded” adds a separate entry of the source. Residues, ends and D or L forms follow the SMILES beside them. No end group written: not given here.

What was measured:
Assay type in all cases: biochemical
DNA-PK [1] = target: T1, DNA-PK (Homo sapiens, UniProt P78527); assay: Phosphorylation of synthetic peptides by purified DNA-PK (phosphocellulose paper binding method); settings: for PO4 incorp.: each peptide at 200 μM, calf thymus DNA 10 μg/ml, 30° C.
T1 construct: DNA-PK was purified from HeLa cells; endogenous in cells; host or cells: HeLa S3 cells; the endogenous enzyme was purified in house by chromatography
Method: Phenylmethylsulfonyl fluoride was added to the S10 (10,000×g) supernatant as a powder to 0.5 mM. DNA-PK activity was found in the 100,000×g (ribosomal) pellet. DNA-PK preparations typically were made from 200 ml of S10 supernatant that had been derived from approximately 10^10 cells. All steps were performed at 4° C. unless indicated otherwise.
Phosphorylation reactions were performed in a 20- or 40-μl final volume as previously described by Chen, et al., J. Virol., 10:5131-5140 (1991) and Lees-Miller, et al., Mol. Cell. […] In particular, in addition to synthetic peptide substrates or protein substrates, the assays contained 50 mM HEPES (pH 7.5), 100 mM KCl, 10 mM MgCl2, 2 mM EGTA, 0.1 mM EDTA and 0.125 mM ATP containing [^32P]ATP at 0.2 mCi/ml. […] Assays were started by adding 1 μl of kinase sample. Incubations were at 30° C. for 7 min.
For determinations of kinetic constants, the ATP concentration was 0.5 mM. When present, hsp90 was included at 0.5 mg/ml. Assay mixtures were preincubated at 30° C. for 2 min before addition of 0.1 to 0.5 μg (protein) of the DNA-PK preparation.
In particular, kinase reactions were stopped by adding an equal volume of 30% acetic acid, and portions of the acidified reaction were spotted on 2- by 2-cm squares of P-81 paper (Whatman, Inc., Clifton, N.J.). […] The P-81 squares were then transferred to scintillation vials containing 3.5 ml of water, and bound radioactivity was determined from the Cerenkov radiation. Enzyme activity was calculated from triplicate determinations, using the specific activity of the ATP and the protein concentration, which was determined by the Bio-Rad dye-binding assay (Bio-Rad (Bradford) Protein Assay Kit 1, Cat. No. 500-001, Bio-Rad Laboratories, Hercules, Calif.), using bovine serum albumin as the standard. […] The kinetic constants, Km and Vmax for each peptide sequence were calculated from plots of 1/[S] versus 1/V, the values reported are averages of at least two independent determinations.

DNA-PK [2] = target: T1, DNA-PK; assay: Poorer substrate peptides added to (SEQ ID NO: 8) phosphorylation assays; settings: peptide up to 250 μM; (SEQ ID NO: 8) at 100 μM
DNA-PK [3] = target: T1, DNA-PK; assay: Phosphorylation of recombinant protein substrates by purified DNA-PK (SDS-PAGE, phosphorimage); settings: 5 μg/ml calf thymus DNA compared to no addition of DNA; 30 minutes at 30° C.
Method: The recombinant protein substrates, a total of six, (at approximately 0.1 mg/ml final concentration) were separately mixed with hsp90 in a phosphorylation reaction with purified DNA-PK (0.6 pg, 0.02 units/assay) without (−) or with (+) 5 μg/ml calf thymus DNA, in the presence of ^32P-ATP for 30 minutes at 30° C. as described by Lees-Miller, et al., Mol. Cell. Biol., 12:5041-5049 (1992). The phosphorylation reactions were stopped with SDS sample buffer and analyzed with SDS-PAGE. The gel was fixed, stained with Coomassie brilliant blue, dried and developed by autoradiographic procedures. The results of which can be seen in FIG. 9.

DNA-PK [4] = target: T1, DNA-PK; assay: Conditions that result in 50% inhibition of DNA-PK activity; settings: for 50% Inhibition / pIC50: inhibition of DNA-PK activity in vitro
Method: Experiments were performed to determine optimal DNA-PK assay conditions. It was determined that DNA-PK is active over a broad pH range and the most common buffers with the exception of phosphate buffers. A summary of assay conditions that optimize DNA-PK activity in vitro is found in Table 4 along with a summary of conditions that result in 50% inhibition of DNA-PK activity.
The methods used to obtain results in the second section (Inhibitor section) of Table 4 are illustrative of methods that are applicable to identifying substances that alter the activity of DNA-PK.

DNA-PK [5] = target: T1, DNA-PK; assay: Identification of phosphorylated residues (sequence analysis, S-ethylcysteine conversion); settings: p53 residue numbering
Method: To determine which of these were phosphorylated, after incubation with DNA-PK, radiochemical sequence analysis was performed by using a Beckman 890M spinning-cup sequencer (Beckman Instruments, Palo Alto, Calif.) as described by Lees-Miller, et al., J. Biol. Chem., 264:17275-17280 (1989). The peptide was isolated by reverse-phase HPLC, peptidylphosphoserine was converted to S-ethylcysteine, and the position of phenylthiohydantoin (PTH)-S-ethylcysteine was determined by chemical microsequence analysis using an Automated Protein/Peptide sequencer (Applied Biosystems, Foster City, Calif.) and a 120 PTH-Amino Acid Analyzer (Applied Biosystems, Foster City, Calif.) as described by Lees-Miller, et al., J. Biol. Chem., 264:17275-17280 (1989).
A peptide corresponding to mouse p53 residues Met^4-Pro^31, (SEQ ID NO: 2), was also examined (See Table 1). Serine 7 of mouse p53 is at the position equivalent to proline 4 of human p53, and the glutamine at position 8 of mouse p53 is conserved among mammals as reported by Soussi, et al., Oncogene, 5:945-952 (1990). After phosphorylation of (SEQ ID NO: 2) the peptide was digested with endoproteinase Glu-C, and the resulting fragments were separated by reverse-phase HPLC. […] Each peptide was treated to convert phosphoserine to S-ethylcysteine; then they were resequenced.

Compound | PO4 incorp. (DNA-PK [1]) | substrate activity for DNA-PK (in words) (DNA-PK [1]) | inhibition of phosphorylation of (SEQ ID NO: 8) (DNA-PK [2]) | other results
PESEQAFADLWKK [SEQ ID NO: 23] | – | not phosphorylated by DNA-PK | – | –
CSCC[C@H](NC(=O)[C@H](C)NC(=O)[C@H](CCC(N)=O)NC(=O)[C@H](CO)NC(=O)[C@@H]1CCCN1C(=O)[C@H](CC(C)C)NC(=O)[C@@H]1CCCN1C(=O)[C@H](CO)NC(=O)[C@H](CC(C)C)NC(=O)[C@@H](NC(=O)[C@H](CC(N)=O)NC(=O)[C@@H](N)CC(N)=O)C(C)C)C(=O)N[C@@H](CC(=O)O)C(=O)N[C@@H](CC(=O)O)C(=O)N[C@@H](CC(C)C)C(=O)N[C@@H](CCSC)C(=O)N[C@@H](CCCCN)C(=O)N[C@@H](CCCCN)C(=O)O [SEQ ID NO: 6] | – | – | – | Km relative to (SEQ ID NO: 4) (DNA-PK [1]): twice as high
EPPLAQETFSDLWKK [SEQ ID NO: 22] | – | not phosphorylated efficiently by DNA-PK | – | –
CC(C)C[C@H](NC(=O)[C@H](CC(=O)O)NC(=O)[C@H](C)NC(=O)[C@H](Cc1ccccc1)NC(=O)[C@H](C)NC(=O)[C@H](CCC(=O)O)NC(=O)[C@H](CCC(N)=O)NC(=O)[C@H](CO)NC(=O)[C@H](CC(C)C)NC(=O)[C@@H]1CCCN1C(=O)[C@@H]1CCCN1C(=O)[C@@H](N)CCC(=O)O)C(=O)N[C@@H](Cc1c[nH]c2ccccc12)C(=O)N[C@@H](CCCCN)C(=O)N[C@@H](CCCCN)C(=O)O [SEQ ID NO: 11] (H-EPPLSQEAFADLWKK-OH) | – | – | – | Km relative to (SEQ ID NO: 8) (DNA-PK [1]): twofold increase
hsp90: human heat shock protein hsp90, a known DNA-PK substrate [reference compound] | – | – | – | increase in phosphate incorporation by addition of double stranded DNA (DNA-PK [3]): 20 fold
Heparin [reference compound] | – | – | – | effect on DNA-PK activity (in words) (DNA-PK [4]): inhibited; 50% Inhibition (DNA-PK [4]): 1 µg/mL
O=P(O)(O)OP(=O)(O)O [Pyrophosphate] | – | – | – | effect on DNA-PK activity (in words) (DNA-PK [4]): inhibited; pIC50 (DNA-PK [4]): 2.52
OCC(O)CO [Glycerol] | – | – | – | effect on DNA-PK activity (in words) (DNA-PK [4]): inhibited; 50% Inhibition (DNA-PK [4]): 25 % v/v
Phosphate | – | – | – | effect on DNA-PK activity (in words) (DNA-PK [4]): inhibited; pIC50 (DNA-PK [4]): 2.00
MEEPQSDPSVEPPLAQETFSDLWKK [SEQ ID NO: 5] | 5.3 pmol/min/μg of DNA-PK | ineffective substrate for DNA-PK | None of these peptides significantly inhibited the phosphorylation | rate of phosphorylation relative to (SEQ ID NO: 4) (DNA-PK [1]; at 200 μM): about 10%
MEESQSDISLELPLSQETFSGLWKLLPP [SEQ ID NO: 2] | – | – | – | site phosphorylated by DNA-PK (DNA-PK [5]): Ser^7 and Ser^18
EPPLSQETFKK [SEQ ID NO: 9] | 15 pmol/min/μg of DNA-PK | – | None of these peptides significantly inhibited the phosphorylation | rate of phosphorylation relative to control (SEQ ID NO: 8) (DNA-PK [1]): approximately 10%
Glu Pro Pro Leu Ser Gln Glu Thr Phe Ser Asp—Lys Lys (EPPLSQETFSDKK; Human p53 residues 11-21; listed as Homo sapiens) [SEQ ID NO: 10] | 12 pmol/min/μg of DNA-PK | – | None of these peptides significantly inhibited the phosphorylation | rate of phosphorylation relative to control (SEQ ID NO: 8) (DNA-PK [1]): approximately 10%

Further lines, with some results ahead:

PO4 incorp. (DNA-PK [1]) | Compound | substrate activity for DNA-PK (in words) (DNA-PK [1]) | inhibition of phosphorylation of (SEQ ID NO: 8) (DNA-PK [2]) | other results
48 pmol/min/μg of DNA-PK | EPPDSQEAFADLWKK [SEQ ID NO: 17] | less effective substrate for DNA-PK than peptides (SEQ ID NOS: 15 AND 16) | – | –
0.4 pmol/min/μg of DNA-PK | EPPLSEEAFADLWKK [SEQ ID NO: 32] | effectively eliminated the ability of the sequence to act as a DNA-PK substrate | None of these peptides significantly inhibited the phosphorylation | –
0 pmol/min/μg of DNA-PK | His Lys Lys Leu Met Phe Lys Thr Glu Gly Pro Asp Ser Asp (HKKLMFKTEGPDSD; Human p53 residues 380-393; listed as Homo sapiens) [SEQ ID NO: 31] | phosphorylated at a negligible rate; also recorded: not substrates for DNA-PK | None of these peptides significantly inhibited the phosphorylation | –
0 pmol/min/μg of DNA-PK | Ser Lys Lys Gly Gln Ser Thr Ser Arg His Lys Lys Leu Met Phe (SKKGQSTSRHKKLMF; Human p53 residues 371-385; listed as Homo sapiens) [SEQ ID NO: 30] | phosphorylated at a negligible rate | – | –
2.3 pmol/min/μg of DNA-PK | EPPLSYEAFADLLKK [SEQ ID NO: 34] | – | – | –
0.1 pmol/min/μg of DNA-PK | EPPLSNEAFADLWKK [SEQ ID NO: 33] | eliminated the ability of the sequence to act as a DNA-PK substrate | None of these peptides significantly inhibited the phosphorylation | –
